According to PMC9645528, “Structural and functional basis of mammalian microRNA biogenesis by Dicer”:

Experiments:
Dicer (full-length) = Dicer (full-length) (Mus musculus, UniProt Q8R418 1-1916); assay: EMSA; EMSA conditions not in the material; protein storage/SEC buffer 50 mM Tris pH 8.0, 150 mM NaCl, 1 mM DTT, 2 mM MgCl2 (2 mM CaCl2 for WT Dicer structural work); conditions: protein: recombinant, tags: N-term TwinStrep-HA-TEV, C-term TEV-2xFLAG-8xHis, hairpin, GCAA tetraloop, 3' overhang UU
[1] = molecular target: DicerO (oocyte isoform lacking HEL1) (Mus musculus, UniProt Q8R418-2 1-1678); assay: as above; conditions: protein: recombinant, tags: N-term TwinStrep-HA-TEV, C-term TEV-2xFLAG-8xHis, hairpin, GCAA tetraloop, 3' overhang UU
Chain of DicerO (oocyte isoform lacking HEL1) (Q8R418 other isoform, or with tags, fused parts or gaps): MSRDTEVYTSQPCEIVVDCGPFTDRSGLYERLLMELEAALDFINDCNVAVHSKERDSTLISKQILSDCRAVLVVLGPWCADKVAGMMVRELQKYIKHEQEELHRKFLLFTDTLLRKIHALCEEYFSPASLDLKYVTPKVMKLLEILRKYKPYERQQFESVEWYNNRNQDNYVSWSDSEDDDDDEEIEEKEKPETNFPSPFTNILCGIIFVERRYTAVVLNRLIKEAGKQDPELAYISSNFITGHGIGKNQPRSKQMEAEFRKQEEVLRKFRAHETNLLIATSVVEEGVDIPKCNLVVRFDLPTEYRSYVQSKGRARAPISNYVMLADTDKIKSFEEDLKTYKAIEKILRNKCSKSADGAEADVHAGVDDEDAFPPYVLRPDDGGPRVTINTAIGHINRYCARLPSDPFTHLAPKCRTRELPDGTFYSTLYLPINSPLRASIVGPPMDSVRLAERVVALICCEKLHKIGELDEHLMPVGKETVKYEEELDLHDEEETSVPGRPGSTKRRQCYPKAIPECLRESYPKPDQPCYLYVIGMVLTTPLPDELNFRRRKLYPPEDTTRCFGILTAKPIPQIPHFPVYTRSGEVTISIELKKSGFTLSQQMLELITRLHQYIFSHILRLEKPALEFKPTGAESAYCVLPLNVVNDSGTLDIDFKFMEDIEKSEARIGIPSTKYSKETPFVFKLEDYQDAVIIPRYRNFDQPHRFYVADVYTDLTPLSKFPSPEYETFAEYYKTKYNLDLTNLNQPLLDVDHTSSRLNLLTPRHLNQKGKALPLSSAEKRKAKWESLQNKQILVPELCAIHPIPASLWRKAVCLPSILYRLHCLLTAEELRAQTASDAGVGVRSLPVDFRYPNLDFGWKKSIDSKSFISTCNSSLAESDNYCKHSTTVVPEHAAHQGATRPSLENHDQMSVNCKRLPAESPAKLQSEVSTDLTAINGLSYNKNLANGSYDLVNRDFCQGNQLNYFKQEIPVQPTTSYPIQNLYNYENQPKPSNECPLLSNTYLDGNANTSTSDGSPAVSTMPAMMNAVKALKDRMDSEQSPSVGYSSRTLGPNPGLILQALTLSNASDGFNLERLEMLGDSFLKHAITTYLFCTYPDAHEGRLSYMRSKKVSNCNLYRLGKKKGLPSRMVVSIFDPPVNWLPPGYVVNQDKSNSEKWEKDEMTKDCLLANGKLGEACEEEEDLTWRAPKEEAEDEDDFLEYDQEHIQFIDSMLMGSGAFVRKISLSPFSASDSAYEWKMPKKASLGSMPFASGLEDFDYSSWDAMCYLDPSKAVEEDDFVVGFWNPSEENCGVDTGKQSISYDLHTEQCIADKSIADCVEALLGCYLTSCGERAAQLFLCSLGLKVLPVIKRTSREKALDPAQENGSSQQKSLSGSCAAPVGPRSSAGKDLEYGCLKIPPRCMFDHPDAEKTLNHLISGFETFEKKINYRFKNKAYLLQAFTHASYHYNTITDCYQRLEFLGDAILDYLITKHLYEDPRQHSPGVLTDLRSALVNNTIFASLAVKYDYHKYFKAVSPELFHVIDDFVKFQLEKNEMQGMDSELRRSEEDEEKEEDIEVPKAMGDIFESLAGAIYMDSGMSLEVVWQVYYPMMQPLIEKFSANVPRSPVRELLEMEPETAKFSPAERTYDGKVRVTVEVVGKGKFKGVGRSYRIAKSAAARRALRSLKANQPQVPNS

Chain of Dicer (full-length) (Q8R418 whole entry, canonical isoform): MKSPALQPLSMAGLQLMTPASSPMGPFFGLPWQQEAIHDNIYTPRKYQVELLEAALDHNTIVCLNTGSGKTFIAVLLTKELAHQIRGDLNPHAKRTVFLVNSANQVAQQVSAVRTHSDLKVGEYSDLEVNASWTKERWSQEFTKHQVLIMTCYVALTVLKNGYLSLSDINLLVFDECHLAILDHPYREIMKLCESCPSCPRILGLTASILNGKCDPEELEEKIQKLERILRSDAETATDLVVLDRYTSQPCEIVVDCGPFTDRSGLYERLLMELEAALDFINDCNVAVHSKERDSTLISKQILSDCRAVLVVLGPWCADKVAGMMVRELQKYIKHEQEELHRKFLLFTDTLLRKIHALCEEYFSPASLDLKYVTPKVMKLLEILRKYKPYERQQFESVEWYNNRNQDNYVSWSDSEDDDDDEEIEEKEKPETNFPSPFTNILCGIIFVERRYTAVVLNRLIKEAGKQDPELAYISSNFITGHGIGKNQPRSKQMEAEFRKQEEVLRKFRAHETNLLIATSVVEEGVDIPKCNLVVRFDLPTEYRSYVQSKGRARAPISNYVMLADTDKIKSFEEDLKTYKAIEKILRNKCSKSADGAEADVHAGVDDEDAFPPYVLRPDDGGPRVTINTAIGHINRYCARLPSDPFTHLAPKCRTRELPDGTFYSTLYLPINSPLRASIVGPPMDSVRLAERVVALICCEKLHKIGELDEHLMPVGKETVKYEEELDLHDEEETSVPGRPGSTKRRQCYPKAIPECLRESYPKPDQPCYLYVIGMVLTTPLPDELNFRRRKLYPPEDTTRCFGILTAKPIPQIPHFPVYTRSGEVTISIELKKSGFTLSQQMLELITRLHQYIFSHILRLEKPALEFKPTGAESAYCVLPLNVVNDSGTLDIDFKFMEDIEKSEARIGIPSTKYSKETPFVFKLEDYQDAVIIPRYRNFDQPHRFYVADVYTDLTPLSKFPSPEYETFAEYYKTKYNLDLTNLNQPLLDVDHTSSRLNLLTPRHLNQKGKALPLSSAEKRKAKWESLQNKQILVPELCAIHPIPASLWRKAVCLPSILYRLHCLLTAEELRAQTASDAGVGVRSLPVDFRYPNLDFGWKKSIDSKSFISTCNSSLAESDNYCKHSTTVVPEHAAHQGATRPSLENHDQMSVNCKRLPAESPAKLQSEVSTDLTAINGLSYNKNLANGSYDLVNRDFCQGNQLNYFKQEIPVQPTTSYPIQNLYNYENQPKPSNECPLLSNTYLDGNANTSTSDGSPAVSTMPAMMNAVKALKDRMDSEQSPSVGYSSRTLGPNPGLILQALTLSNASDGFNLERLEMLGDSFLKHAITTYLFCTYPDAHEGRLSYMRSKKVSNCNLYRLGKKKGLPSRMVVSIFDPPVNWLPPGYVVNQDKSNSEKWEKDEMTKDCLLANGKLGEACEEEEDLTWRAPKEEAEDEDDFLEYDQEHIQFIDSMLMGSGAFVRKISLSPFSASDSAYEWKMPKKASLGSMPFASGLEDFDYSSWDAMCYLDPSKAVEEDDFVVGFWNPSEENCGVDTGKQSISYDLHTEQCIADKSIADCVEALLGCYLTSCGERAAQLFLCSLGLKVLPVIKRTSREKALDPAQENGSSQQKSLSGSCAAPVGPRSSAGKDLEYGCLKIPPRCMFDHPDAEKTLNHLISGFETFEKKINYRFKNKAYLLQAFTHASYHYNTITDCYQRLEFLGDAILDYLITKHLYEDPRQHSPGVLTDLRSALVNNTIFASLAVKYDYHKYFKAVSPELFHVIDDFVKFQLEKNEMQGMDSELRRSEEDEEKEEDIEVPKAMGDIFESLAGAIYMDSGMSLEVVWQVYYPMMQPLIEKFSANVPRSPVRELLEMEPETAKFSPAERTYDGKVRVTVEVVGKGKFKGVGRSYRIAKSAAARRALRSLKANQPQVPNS

B1: 30bp stem-loop (structured_RNA)
RNA: AGAGGAGAGGGACAAUCAUAAAGGCCACUCGCAAGAGUGGCCUUUAUGAUUGUCCCUCUCCUCUUU
Kd (Dicer (full-length); 30 bp stem): 120 ± 27 nM
Kd ([1]; 30 bp stem): 79 ± 7 nM

B2: 42bp stem-loop (structured_RNA)
RNA: AGAGGAGAGGGACAAUAGAGGAGAGGGACAAUCAUAAAGGCCGCAAGGCCUUUAUGAUUGUCCCUCUCCUCUAUUGUCCCUCUCCUCUUU
Kd (Dicer (full-length); 42 bp stem): 115 ± 20 nM
Kd ([1]; 42 bp stem): 55 ± 4 nM
